Substitutions are numbered along the chain they refer to.
Columns and labels:
Test in all cases: positional peptide library pulldown on immobilised Nb, LC-MS of supernatant; signal ratio to control GFP-Nb (1 = not captured, near 0 = captured)
BC2T A5E = biological target: T1, BC2T A5E
T1 construct: positional scanning library member
T1 peptide: Ac-PDRKEAVSHWQQ-NH2
In short: (§1)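 Unbound peptide left in supernatant after 1 h pulldown in PBS/0.01% CHAPS measured by reversed-phase LC-MS (8–30% eluent B gradient, 20 min).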

BC2T V7W = biological target: T2, BC2T V7W
T2 construct: positional scanning library member
T2 peptide: Ac-PDRKAAWSHWQQ-NH2
In short: as §1

BC2T D2E = biological target: T3, BC2T D2E
T3 construct: positional scanning library member
T3 peptide: Ac-PERKAAVSHWQQ-NH2
In short: as §1

BC2T A5K = biological target: T4, BC2T A5K
T4 construct: positional scanning library member
T4 peptide: Ac-PDRKKAVSHWQQ-NH2
In short: as §1

BC2T A6D = biological target: T5, BC2T A6D
T5 construct: positional scanning library member
T5 peptide: Ac-PDRKADVSHWQQ-NH2
In short: as §1

BC2T D2K = biological target: T6, BC2T D2K
T6 construct: positional scanning library member
T6 peptide: Ac-PKRKAAVSHWQQ-NH2
In short: as §1

BC2T D2P = biological target: T7, BC2T D2P
T7 construct: positional scanning library member
T7 peptide: Ac-PPRKAAVSHWQQ-NH2
In short: as §1

BC2T P1E = biological target: T8, BC2T P1E
T8 construct: positional scanning library member
T8 peptide: Ac-EDRKAAVSHWQQ-NH2
In short: as §1

BC2T A6W = biological target: T9, BC2T A6W
T9 construct: positional scanning library member
T9 peptide: Ac-PDRKAWVSHWQQ-NH2
In short: as §1

BC2T A6S = biological target: T10, BC2T A6S
T10 construct: positional scanning library member
T10 peptide: Ac-PDRKASVSHWQQ-NH2
In short: as §1

BC2T V7Y = biological target: T11, BC2T V7Y
T11 construct: positional scanning library member
T11 peptide: Ac-PDRKAAYSHWQQ-NH2
In short: as §1

BC2T K4Y = biological target: T12, BC2T K4Y
T12 construct: positional scanning library member
T12 peptide: Ac-PDRYAAVSHWQQ-NH2
In short: as §1

BC2T A6Y = biological target: T13, BC2T A6Y
T13 construct: positional scanning library member
T13 peptide: Ac-PDRKAYVSHWQQ-NH2
In short: as §1

BC2T D2T = biological target: T14, BC2T D2T
T14 construct: positional scanning library member
T14 peptide: Ac-PTRKAAVSHWQQ-NH2
In short: as §1

BC2T K4N = biological target: T15, BC2T K4N
T15 construct: positional scanning library member
T15 peptide: Ac-PDRNAAVSHWQQ-NH2
In short: as §1

BC2T P1W = biological target: T16, BC2T P1W
T16 construct: positional scanning library member
T16 peptide: Ac-WDRKAAVSHWQQ-NH2
In short: as §1

BC2T P1F = biological target: T17, BC2T P1F
T17 construct: positional scanning library member
T17 peptide: Ac-FDRKAAVSHWQQ-NH2
In short: as §1

BC2T R3E = biological target: T18, BC2T R3E
T18 construct: positional scanning library member
T18 peptide: Ac-PDEKAAVSHWQQ-NH2
In short: as §1

BC2T A5R = biological target: T19, BC2T A5R
T19 construct: positional scanning library member
T19 peptide: Ac-PDRKRAVSHWQQ-NH2
In short: as §1

BC2T V7H = biological target: T20, BC2T V7H
T20 construct: positional scanning library member
T20 peptide: Ac-PDRKAAHSHWQQ-NH2
In short: as §1

BC2T A5W = biological target: T21, BC2T A5W
T21 construct: positional scanning library member
T21 peptide: Ac-PDRKWAVSHWQQ-NH2
In short: as §1

BC2T W10D = biological target: T22, BC2T W10D
T22 construct: positional scanning library member
T22 peptide: Ac-PDRKAAVSHDQQ-NH2
In short: as §1

B1: BC2-NbR106E (VHH)
VHH: QVQLVESGGGLVQPGGSLTLSCTASGFTLDHYDIGWFRQAPGKEREGVSCINNSDDDTYYADSVKGRFTIFMDNAKDTVYLQMNSLKPEDTAIYYCAEARGCKRGEYEYDFWGQGTQVTVSS
notes: headlock mutant of BC2-Nb; immobilised on beads in this assay
ratio (BC2T A5E): 0.8
ratio (BC2T V7W): 0.2
ratio (BC2T D2E): 0.2
ratio (BC2T A5K): 0
ratio (BC2T A6D): 1
ratio (BC2T D2K): 0.1
ratio (BC2T D2P): 0.8
ratio (BC2T P1E): 0.8
ratio (BC2T A6W): 1
ratio (BC2T A6S): 0.6
ratio (BC2T V7Y): 0.2
ratio (BC2T K4Y): 0.3
ratio (BC2T A6Y): 1
ratio (BC2T D2T): 0.1
ratio (BC2T K4N): 0.8
ratio (BC2T P1W): 0.2
ratio (BC2T P1F): 0.3
ratio (BC2T R3E): 1
ratio (BC2T A5R): 0
ratio (BC2T V7H): 0.3
ratio (BC2T A5W): 0

B2: BC2 nanobody (VHH)
VHH: B1 VHH with E106R
notes: immobilised on beads in this assay; also called BC2-Nb; BC2 nanotrap (immobilised)
ratio (BC2T W10D): 1
